The values below come from PMC9482650, “Quantitative fragmentomics allow affinity mapping of interactomes” (Nature Communications, 2022).

Among the targets are FRMPD2_3, Q68DX3; Inadl_5, Q8NI35; TJP1_3, Q07157; Inadl_3, Q8NI35; LIMK2, P53671; PDLIM1, O00151; DLG1_2, Q12959; DLG4_2, P78352.
Assay in all cases: holdup assay
Holding throughout (design): key: below the threshold = too weak to quantify, mostly under pKd 3.1 to 4
What all share (settings): plain residues with an end cap or a label only (N-terminal biotin on a linker: ado-ado)

Another assay has as its target T1, TIAM2, Q8IVF5.
T1 sequence (Q8IVF5 885-986, limits assumed, looked up): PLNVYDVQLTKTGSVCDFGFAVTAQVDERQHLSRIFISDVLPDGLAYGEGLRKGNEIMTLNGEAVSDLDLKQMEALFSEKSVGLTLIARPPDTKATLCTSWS

The next assay has as its target T2, LNX2_3, Q8N448.
T2 sequence (Q8N448 463-564, limits assumed, looked up): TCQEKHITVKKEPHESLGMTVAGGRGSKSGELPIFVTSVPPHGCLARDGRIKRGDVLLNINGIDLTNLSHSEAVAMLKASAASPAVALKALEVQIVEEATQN

Another assay concerns the target T3, RAPGEF6, Q8TEU7.
T3 sequence (Q8TEU7 525-625, limits assumed, looked up): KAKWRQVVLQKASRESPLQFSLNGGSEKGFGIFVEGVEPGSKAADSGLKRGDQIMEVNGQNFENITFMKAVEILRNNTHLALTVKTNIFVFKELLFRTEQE

The next assay has as its target T4, PDZD2_2, O15018.
T4 sequence (O15018 329-429, limits assumed, looked up): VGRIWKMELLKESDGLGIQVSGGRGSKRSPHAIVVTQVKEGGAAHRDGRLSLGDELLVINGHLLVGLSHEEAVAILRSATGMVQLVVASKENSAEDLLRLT

A further assay has as its target T5, NHERF3_1, Q5T2W1.
T5 sequence (Q5T2W1 4-100, limits assumed, looked up): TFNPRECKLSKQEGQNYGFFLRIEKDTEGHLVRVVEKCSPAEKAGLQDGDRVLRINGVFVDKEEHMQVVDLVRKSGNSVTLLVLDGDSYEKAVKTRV

Another assay concerns the target T6, SNTG1, Q9NSN8.
T6 sequence (Q9NSN8 52-150, limits assumed, looked up): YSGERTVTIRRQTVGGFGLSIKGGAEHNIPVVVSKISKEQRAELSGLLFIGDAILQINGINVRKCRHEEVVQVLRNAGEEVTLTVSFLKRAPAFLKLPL

A further assay addresses T7, ARHGAP21, Q5T5U3.
T7 sequence (Q5T5U3 45-169, limits assumed, looked up): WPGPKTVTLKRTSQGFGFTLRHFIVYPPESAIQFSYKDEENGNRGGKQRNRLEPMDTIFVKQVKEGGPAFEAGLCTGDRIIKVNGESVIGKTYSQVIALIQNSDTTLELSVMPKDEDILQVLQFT

The next assay deals with T8, MPP6, Q9NZW5.
T8 sequence (Q9NZW5 125-219, limits assumed, looked up): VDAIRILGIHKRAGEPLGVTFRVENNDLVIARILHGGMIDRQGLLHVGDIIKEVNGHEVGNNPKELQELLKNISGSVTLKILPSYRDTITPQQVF

The target in a further assay is T9, RADIL, Q96JH8.
T9 sequence (Q96JH8 971-1071, limits assumed, looked up): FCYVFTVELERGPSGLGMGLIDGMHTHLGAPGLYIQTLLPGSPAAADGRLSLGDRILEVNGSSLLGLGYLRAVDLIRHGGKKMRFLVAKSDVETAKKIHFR

The target in another assay is T10, SNTB1, Q13884.
T10 sequence (Q13884 107-205, limits assumed, looked up): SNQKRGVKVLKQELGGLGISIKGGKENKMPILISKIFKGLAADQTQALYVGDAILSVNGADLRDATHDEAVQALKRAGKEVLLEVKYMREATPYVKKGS

A further assay concerns the target T11, APBA2_2, Q99767.
T11 sequence (Q99767 654-744, limits assumed, looked up): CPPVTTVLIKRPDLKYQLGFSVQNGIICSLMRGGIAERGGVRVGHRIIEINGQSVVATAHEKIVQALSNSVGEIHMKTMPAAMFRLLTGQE

A further assay deals with T12, DVL3, Q92997.
T12 sequence (Q92997 244-331, limits assumed, looked up): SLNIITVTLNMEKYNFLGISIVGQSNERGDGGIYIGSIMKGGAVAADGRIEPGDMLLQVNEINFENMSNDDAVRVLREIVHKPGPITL

Another assay has as its target T13, DLG3_2, Q92796.
T13 sequence (Q92796 221-321, limits assumed, looked up): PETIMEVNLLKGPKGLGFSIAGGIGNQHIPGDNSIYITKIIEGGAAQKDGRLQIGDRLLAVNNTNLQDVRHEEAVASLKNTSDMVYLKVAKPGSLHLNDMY

Another assay addresses T14, HTRA4, P83105.
T14 sequence (P83105 378-476, limits assumed, looked up): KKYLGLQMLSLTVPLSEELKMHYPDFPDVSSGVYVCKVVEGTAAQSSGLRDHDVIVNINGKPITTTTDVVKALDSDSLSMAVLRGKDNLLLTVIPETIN

By pKd is commonly meant −log10 of the Kd, conventionally taken in molar units.

TJP1_3, Q07157, sequence (Q07157 416-512): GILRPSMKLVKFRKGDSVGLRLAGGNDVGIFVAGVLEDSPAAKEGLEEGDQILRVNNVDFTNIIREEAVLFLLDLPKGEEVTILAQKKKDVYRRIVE
DLG1_2, Q12959, sequence (Q12959 314-412): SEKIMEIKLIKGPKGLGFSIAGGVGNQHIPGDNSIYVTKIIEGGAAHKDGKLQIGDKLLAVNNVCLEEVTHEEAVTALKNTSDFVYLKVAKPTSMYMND
Inadl_3, Q8NI35, sequence (Q8NI35 359-469): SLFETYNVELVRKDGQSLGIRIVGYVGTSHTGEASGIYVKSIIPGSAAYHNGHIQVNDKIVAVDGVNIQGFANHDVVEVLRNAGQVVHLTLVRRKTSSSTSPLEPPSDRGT
DLG4_2, P78352, sequence (P78352 155-259): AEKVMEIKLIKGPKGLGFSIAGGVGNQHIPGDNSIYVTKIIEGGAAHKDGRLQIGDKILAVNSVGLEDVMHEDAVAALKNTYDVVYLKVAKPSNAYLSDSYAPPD
PDLIM1, O00151, sequence (O00151 1-87): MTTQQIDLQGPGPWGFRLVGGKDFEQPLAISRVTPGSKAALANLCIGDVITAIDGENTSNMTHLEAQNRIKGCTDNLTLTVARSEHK
Inadl_5, Q8NI35, sequence (Q8NI35 673-780): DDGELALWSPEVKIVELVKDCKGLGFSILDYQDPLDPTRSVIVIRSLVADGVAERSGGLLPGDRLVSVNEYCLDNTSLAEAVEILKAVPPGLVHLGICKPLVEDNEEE
LIMK2, P53671, sequence (P53671 143-248): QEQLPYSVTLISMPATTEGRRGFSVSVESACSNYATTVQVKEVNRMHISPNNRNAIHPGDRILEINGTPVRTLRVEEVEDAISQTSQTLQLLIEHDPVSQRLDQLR
FRMPD2_3, Q68DX3, sequence (Q68DX3 1073-1166): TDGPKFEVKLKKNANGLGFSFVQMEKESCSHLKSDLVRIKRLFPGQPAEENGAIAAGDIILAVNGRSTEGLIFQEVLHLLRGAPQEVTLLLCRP

Turning to STYCDYTIEI [FAM71C, Q8NEG0], the negative logarithm of the Kd (pKd) result in the assay with FRMPD2_3, Q68DX3 was “below the threshold”; with TIAM2, Q8IVF5, 4.15; with Inadl_5, Q8NI35, “below the threshold”; in the assay with LNX2_3, Q8N448, “below the threshold”; in the assay with RAPGEF6, Q8TEU7, “below the threshold”; with PDZD2_2, O15018 it was 4.69. For the same molecule, the pKd result with TJP1_3, Q07157 was “below the threshold”; in the assay with Inadl_3, Q8NI35, 5; with LIMK2, P53671 it was “below the threshold”; with NHERF3_1, Q5T2W1, “below the threshold”; with SNTG1, Q9NSN8, “below the threshold”; with ARHGAP21, Q5T5U3 it was 4.13. Moreover, the pKd with MPP6, Q9NZW5 was 3.67; with RADIL, Q96JH8, 4.58; in the assay with SNTB1, Q13884, “below the threshold”; with APBA2_2, Q99767 it was “below the threshold”; in the assay with PDLIM1, O00151, “below the threshold”; in the assay with DLG1_2, Q12959, “below the threshold”. Moreover, the negative-log Kd (pKd) with DVL3, Q92997 is 4.01; with DLG3_2, Q92796, “below the threshold”; in the assay with DLG4_2, P78352, “below the threshold”; in the assay with HTRA4, P83105, 4.96.
QKASRNESTF [POLR1D, P0DPB6]: the pKd entry in the assay with FRMPD2_3, Q68DX3 is “below the threshold”; with TIAM2, Q8IVF5, 3.92; with Inadl_5, Q8NI35, “below the threshold”; in the assay with LNX2_3, Q8N448, “below the threshold”; with RAPGEF6, Q8TEU7, “below the threshold”; with PDZD2_2, O15018, “below the threshold”. The negative logarithm of the Kd (pKd) entry in the assay with TJP1_3, Q07157 was “below the threshold”; with Inadl_3, Q8NI35 it was “below the threshold”; in the assay with LIMK2, P53671, “below the threshold”; in the assay with NHERF3_1, Q5T2W1, “below the threshold”; with SNTG1, Q9NSN8, “below the threshold”; in the assay with ARHGAP21, Q5T5U3, “below the threshold”. Besides, the negative logarithm of the Kd (pKd) result is “below the threshold” with MPP6, Q9NZW5; “below the threshold” with RADIL, Q96JH8; “below the threshold” with SNTB1, Q13884; “below the threshold” in the assay with APBA2_2, Q99767; “below the threshold” with PDLIM1, O00151; 3.64 in the assay with DLG1_2, Q12959. The negative-log Kd (pKd) result was “below the threshold” with DVL3, Q92997; 4.23 with DLG3_2, Q92796; “below the threshold” with DLG4_2, P78352; “below the threshold” with HTRA4, P83105.
For KEKASTETEC [TRPM1, Q7Z4N2], the pKd entry with FRMPD2_3, Q68DX3 was “below the threshold”; with TIAM2, Q8IVF5, “below the threshold”; in the assay with Inadl_5, Q8NI35, “below the threshold”; with LNX2_3, Q8N448 it was “below the threshold”; in the assay with RAPGEF6, Q8TEU7, “below the threshold”; in the assay with PDZD2_2, O15018 it was “below the threshold”. Besides, the pKd result is “below the threshold” in the assay with TJP1_3, Q07157; “below the threshold” with Inadl_3, Q8NI35; “below the threshold” with LIMK2, P53671; 3.64 in the assay with NHERF3_1, Q5T2W1; “below the threshold” with SNTG1, Q9NSN8; 3.97 with ARHGAP21, Q5T5U3. Further, the negative logarithm of the Kd (pKd) result with MPP6, Q9NZW5 was “below the threshold”; with RADIL, Q96JH8, “below the threshold”; with SNTB1, Q13884 it was 4.17; in the assay with APBA2_2, Q99767, “below the threshold”; in the assay with PDLIM1, O00151, “below the threshold”; with DLG1_2, Q12959, 4.23. Moreover, the pKd entry was “below the threshold” in the assay with DVL3, Q92997; 3.92 in the assay with DLG3_2, Q92796; 3.9 in the assay with DLG4_2, P78352; “below the threshold” with HTRA4, P83105.
For the molecule MQILSKPEFI [NPSR1, Q6W5P4], the pKd entry in the assay with FRMPD2_3, Q68DX3 was “below the threshold”; with TIAM2, Q8IVF5, 4.05; with Inadl_5, Q8NI35 it was 3.53; with LNX2_3, Q8N448, “below the threshold”; with RAPGEF6, Q8TEU7, “below the threshold”; in the assay with PDZD2_2, O15018, 3.62. Besides, the pKd entry with TJP1_3, Q07157 is listed as “below the threshold”; in the assay with Inadl_3, Q8NI35, “below the threshold”; with LIMK2, P53671, “below the threshold”; in the assay with NHERF3_1, Q5T2W1, “below the threshold”; in the assay with SNTG1, Q9NSN8, “below the threshold”; with ARHGAP21, Q5T5U3, “below the threshold”. In addition, the pKd entry with MPP6, Q9NZW5 was “below the threshold”; in the assay with RADIL, Q96JH8, 4.42; in the assay with SNTB1, Q13884, “below the threshold”; in the assay with APBA2_2, Q99767, “below the threshold”; with PDLIM1, O00151, “below the threshold”; with DLG1_2, Q12959, “below the threshold”. Moreover, the pKd with DVL3, Q92997 is 3.61; in the assay with DLG3_2, Q92796, 4.18; with DLG4_2, P78352 it was “below the threshold”; in the assay with HTRA4, P83105, 4.38.
For KIEDVEITLV [FCHSD2, O94868], the negative logarithm of the Kd (pKd) result was “below the threshold” in the assay with FRMPD2_3, Q68DX3; “below the threshold” with TIAM2, Q8IVF5; “below the threshold” with Inadl_5, Q8NI35; “below the threshold” with LNX2_3, Q8N448; “below the threshold” with RAPGEF6, Q8TEU7; 4.64 with PDZD2_2, O15018. Moreover, the negative logarithm of the Kd (pKd) result is “below the threshold” with TJP1_3, Q07157; 4.43 with Inadl_3, Q8NI35; “below the threshold” with LIMK2, P53671; 4.13 in the assay with NHERF3_1, Q5T2W1; 4.14 with SNTG1, Q9NSN8; 4.01 in the assay with ARHGAP21, Q5T5U3. The pKd with MPP6, Q9NZW5 is 3.74; in the assay with RADIL, Q96JH8, 5.03; with SNTB1, Q13884, 3.95; with APBA2_2, Q99767, 3.51; with PDLIM1, O00151, “below the threshold”; with DLG1_2, Q12959 it was 4.3. Also, the negative-log Kd (pKd) result with DVL3, Q92997 was “below the threshold”; in the assay with DLG3_2, Q92796, 3.53; with DLG4_2, P78352, 4.2; with HTRA4, P83105, 4.54.
